Measured values reported in the domain aggregation screens of Martell et al. (2025).

assay: soluble fraction after stress (log2 fold change); higher = more stays soluble; pooled small domains, quantitative proteomics; details: stress: 50 degC
Method in brief: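 Pooled custom libraries of small protein domains were measured in a high-throughput format, with quantitative proteomics as the read-out. Each library was stressed at 50°C. Aggregation propensity is given as the base-two logarithm of the fold change in how much of each protein stays soluble after the stress. Higher values mean a larger share of the protein remains in solution.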

Row | Sequence | soluble fraction (log2)
1 | HMNIIHNPSKNFIESDLNDLKEGMEIEHKKFGYGLIKSIDKTQNHQKAVVNFKLVGEKTLLLSFARLRIV | -2.75
2 | HMNIILFLDELHRLLSDLPPEERNQAIKYYEDYFEDAGPENEQAILKELGSPQELANQIKATT | -0.627
3 | HMNIIMLGEFIKEQRIKRKMTQEYLASELGISRPTYSQIELGTRELTIPEARKMAAIFNISLEDFLAEKE | -0.604
4 | HMNIMNINQALNVLNLKGTVSKEELAKAYKKMAIKYHPDRNPTGVEMMKVINSAYEFLKGLNLEEIKH | 0.256
5 | HMNINLNVGKRLKSIRQNKELSLDEVSNLTNVSKPALAQIERGASSPTINTLWKISKGLKVPLSYFLQE | -0.0405
6 | HMNINVRNTGIKAVENNIINLSSDQRTFTWASNDRKLITVPFDENPYSALAAWFKTDEGIEVYQTIEKKL | -0.115
7 | HMNIWNEWAFKKWIESDEYTGPDMTDFGHRTLVDEEFSKQYKEQMSLFKERVLTDDEFSAKYGDL | -0.66
8 | HMNKEDIASNEKLLGLLNHMSKVLKDIDFIKDDRPMIVRKINHIFKKATLSEEEINILRGVLSAIENHS | -0.479
9 | HMNKEKLLEMFESMSIIIVQSLEEKEQTEDRIETELFNEAKTPRYSTLTKQDIQSVIRNILITVGV | -1.84
10 | HMNKELVVPDLTDMRVKDAEFEAHQVGMRTEIVDSVYVRRLKRGYVYKQNPVPGSKVKKGRRIALTINAV | 0.202
11 | HMNKETYIDALERKLWDRLDPDQLRDIISYYKDYFAMEAAKGISEEETIRKLGDPALLAKSILAAE | -0.335
12 | HMNKEVDLPNFVGMTKENAQAQADKIKIKLEFEEEYSSDVEEGKIISQNPEYKENYKIKEKSTVSLKI | 0.118
13 | HMNKFKVNERVRVIATGEIGIVKGREILPVEGSKRVNIEYLVKVGNGFSNWKAFSKKELEPVR | -1.18
14 | HMNKFRVGDEVEIVKLDKTIQHFGGEEVLSPVGTKTYITYVDVTGKEIEIDKDIYSYHADDLTLV | 0.147
15 | HMNKKLEMKIEQLDLSVRLFNSLKRSGIYTVAQIIKLTEEDVMRFRSLGRKSFKELKEKLSEHGLEFE | -2.15
16 | HMNKLKALREEQGLSMMEIAKQLNMPYTTYVNYEKGTREPNSEMLIKFSKFFNVTIDYLIGNSEQKN | -0.502
17 | HMNKNLQLMINEIKKGLASEDIETRKKSVLMLSRIDAPEIIQVLEPLKDDSSEEIRKISSKIISVLSKKYT | 0.168
18 | HMNKNQGVTTTNLNFRKSASTSSLVLYTIPKNTTLDILDKLPSGWYKVKYKGLTGYVSGSYV | -1.37
19 | HMNKPTFNIFNNRLTFPFKGDITIYSLDGKRVFSAYNESSVNLSFLNRGSYISEFNNSRSVLIL | -1.39
20 | HMNKRKQRINDLMDLIREQPALSIKNLAEMLNVSEMTIRRDMAYLKSNNLLNRAHGMNFLNS | 0.0812
21 | HMNKSEFLNELEKRIRVLEKNEIKDILAEYSQHIDMRMGSGLSEAEAIKDFGDMDDLAAEILEAY | 0.08
22 | HMNKVDEEKNAELVSTIQNKFSDVSAATKKKVKAFMAEHDIPNFKNADEIPTANLEAIVAMLNED | 0.229
23 | HMNKYNNIEDLKEEDFENISEKYQVPVSFVKSKLDDLINWHEKNPQKNHYKNYLSALRDWVKRDSLKIKL | 0.0328
24 | HMNLDELGNRIREQRIKQRLKQQDIANALMLSAQAVSKWERGENAPDISVLPDLVKILGVSVDWLLTGP | -0.734
25 | HMNLDPHVVGHRLRDLRTRRDLTLADVAAETDISVSTLSRLESGSRRATLELLVPLARTYRVTLDELVDA | -0.66
26 | HMNLDPIKRKSEILSLFESHKNVKFNEIFFEKVNKEFTVLTFLIILELVKDNIIDFSQTQEGLIEFFTR | -0.115
27 | HMNLDVPGIIKRAKQALNLKRDSELAEFLGVSRATVTNWAARNSIDFRLLLDKLGNTVDYNWLLLGKGNPK | -0.221
28 | HMNLDYKQFQVFNNIETLNTFTNLLSDNKIDFEVENNSKIFDPSFANNDFEKEYIVKIHPNDFEKVY | 0.064
